Test results reported in patent CN115992129A (YEASEN BIOLOGICAL TECH SHANGHAI CO LTD, dated 2023).

B1: ProteinA抗体IgY-81 (antibody, V domains shown)
VH: AVTLDESGGGLQTPGGALSLVCKASGFTFSSNGMGWVRQAPGKGLEYVASISNDGSLTDYASPVKGRATISRDNGQSTVRLQLNNLRAEDTGTYYCAKSPGGGWLADPIDAWGRGTEVIVSS
VL: QAALTQPASVSANPGETVQITCSGGGSSRYYGWYQQKSPGSAPVTLIYDNINRPSGIPSRFSGSTSGSTGTLSITGVRAEDEAVYYCGSFDSSGTGIFGAGTTLTVL
notes: Coating (capture) antibody in the sandwich ELISA
B2: ProteinA抗体IgY-80 (antibody, V domains shown)
VH: AVTLDESGGGLQTPGGTLSLVCKASGFTFSDRGMHWVRQAPGKGLEWVAGTYTSGSITYYAPAVNGRATISRDNGQSTLRLQLNNLRAEDSGTYYCARDFGPSGWNAGSIDAWGHGTEVIVSS
VL: QAALTQPSSVSANLGGTVKITCSGGGSRYGYMYGWIQQTSPGSAPVTVIYDNTNRPSNIPSRFSGSLSGSTNTLTITGVQAEDEAVYFCGSYEGTTLTFGAGTTLTVL
notes: Biotin-conjugated as the detection antibody in the sandwich ELISA

Molecular target: T1, BSA (UniProt P02769 25-607)
T1 construct: Negative control antigen in ELISA; also called BSA对照
Experiment: ELISA, BSA coated and blocked as control, HRP anti-IgY secondary

T1 sequence (P02769 25-607 limits assumed): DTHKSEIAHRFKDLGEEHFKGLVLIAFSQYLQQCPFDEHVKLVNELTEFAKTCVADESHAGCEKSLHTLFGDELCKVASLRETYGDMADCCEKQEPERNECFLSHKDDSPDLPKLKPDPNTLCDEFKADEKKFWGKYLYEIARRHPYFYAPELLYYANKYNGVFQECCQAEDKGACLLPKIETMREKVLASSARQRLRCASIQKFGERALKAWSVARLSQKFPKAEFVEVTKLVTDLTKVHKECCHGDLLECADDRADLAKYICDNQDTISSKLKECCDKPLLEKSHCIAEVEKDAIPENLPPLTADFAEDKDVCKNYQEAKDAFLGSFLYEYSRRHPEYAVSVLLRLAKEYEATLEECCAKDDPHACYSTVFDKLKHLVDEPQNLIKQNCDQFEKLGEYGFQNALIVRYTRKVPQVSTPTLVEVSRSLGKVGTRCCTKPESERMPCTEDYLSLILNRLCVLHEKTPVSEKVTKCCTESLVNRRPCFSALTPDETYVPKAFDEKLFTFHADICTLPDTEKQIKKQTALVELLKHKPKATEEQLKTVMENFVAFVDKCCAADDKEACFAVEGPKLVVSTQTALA

| Binder | binding result |
| --- | --- |
| B1 | no binding (tested: 1μg/ml, two-fold dilutions) |
| B2 | no binding (tested: 1μg/ml, two-fold dilutions) |
